Reference: paper PMC12273628, “In vitro reconstitution of a minimal human centrosome scaffold capable of forming and clustering microtubule asters” (Journal of Cell Science, 2025)

B1: mCherry::HSET, full length, wild type (natural protein, human, UniProt Q9BW19 1-673, looked up)
chain: MDPQRSPLLEVKGNIELKRPLIKAPSQLPLSGSRLKRRPDQMEDGLEPEKKRTRGLGATTKITTSHPRVPSLTTVPQTQGQTTAQKVSKKTGPRCSTAIATGLKNQKPVPAVPVQKSGTSGVPPMAGGKKPSKRPAWDLKGQLCDLNAELKRCRERTQTLDQENQQLQDQLRDAQQQVKALGTERTTLEGHLAKVQAQAEQGQQELKNLRACVLELEERLSTQEGLVQELQKKQVELQEERRGLMSQLEEKERRLQTSEAALSSSQAEVASLRQETVAQAALLTEREERLHGLEMERRRLHNQLQELKGNIRVFCRVRPVLPGEPTPPPGLLLFPSGPGGPSDPPTRLSLSRSDERRGTLSGAPAPPTRHDFSFDRVFPPGSGQDEVFEEIAMLVQSALDGYPVCIFAYGQTGSGKTFTMEGGPGGDPQLEGLIPRALRHLFSVAQELSGQGWTYSFVASYVEIYNETVRDLLATGTRKGQGGECEIRRAGPGSEELTVTNARYVPVSCEKEVDALLHLARQNRAVARTAQNERSSRSHSVFQLQISGEHSSRGLQCGAPLSLVDLAGSERLDPGLALGPGERERLRETQAINSSLSTLGLVIMALSNKESHVPYRNSKLTYLLQNSLGGSAKMLMFVNISPLEENVSESLNSLRFASKVNQCVIGTAQANRK
notes: HSET (KifC1), kinesin-14 family motor, human, full length; also called KifC1; mCherry::HSET(WT); source: SF9 insect cells (baculovirus), purified (Ni-NTA)

Legend:
[1] = target: GFP::CDK5RAP2 isoform B, full length, wild type (assembled into micron-scale scaffolds with anti-CM2 IgM) (human) (UniProt Q96SN8); test: partitioning into in vitro scaffolds (confocal fluorescence microscopy); 4-component asters: 167 nM GFP::CDK5RAP2, 33 nM mBFP::γ-TuRCs, 33 nM mCherry::HSET, 13 µM HiLyte-647-labeled α/β-tubulin; 50 mM KCl, 25 mM HEPES pH 7.4, IgM+; compared with 3-component reactions without HSET
GFP::CDK5RAP2 isoform B, full length, wild type (assembled into micron-scale scaffolds with anti-CM2 IgM) (human), sequence (Q96SN8 other isoform, or with tags, fused parts or gaps): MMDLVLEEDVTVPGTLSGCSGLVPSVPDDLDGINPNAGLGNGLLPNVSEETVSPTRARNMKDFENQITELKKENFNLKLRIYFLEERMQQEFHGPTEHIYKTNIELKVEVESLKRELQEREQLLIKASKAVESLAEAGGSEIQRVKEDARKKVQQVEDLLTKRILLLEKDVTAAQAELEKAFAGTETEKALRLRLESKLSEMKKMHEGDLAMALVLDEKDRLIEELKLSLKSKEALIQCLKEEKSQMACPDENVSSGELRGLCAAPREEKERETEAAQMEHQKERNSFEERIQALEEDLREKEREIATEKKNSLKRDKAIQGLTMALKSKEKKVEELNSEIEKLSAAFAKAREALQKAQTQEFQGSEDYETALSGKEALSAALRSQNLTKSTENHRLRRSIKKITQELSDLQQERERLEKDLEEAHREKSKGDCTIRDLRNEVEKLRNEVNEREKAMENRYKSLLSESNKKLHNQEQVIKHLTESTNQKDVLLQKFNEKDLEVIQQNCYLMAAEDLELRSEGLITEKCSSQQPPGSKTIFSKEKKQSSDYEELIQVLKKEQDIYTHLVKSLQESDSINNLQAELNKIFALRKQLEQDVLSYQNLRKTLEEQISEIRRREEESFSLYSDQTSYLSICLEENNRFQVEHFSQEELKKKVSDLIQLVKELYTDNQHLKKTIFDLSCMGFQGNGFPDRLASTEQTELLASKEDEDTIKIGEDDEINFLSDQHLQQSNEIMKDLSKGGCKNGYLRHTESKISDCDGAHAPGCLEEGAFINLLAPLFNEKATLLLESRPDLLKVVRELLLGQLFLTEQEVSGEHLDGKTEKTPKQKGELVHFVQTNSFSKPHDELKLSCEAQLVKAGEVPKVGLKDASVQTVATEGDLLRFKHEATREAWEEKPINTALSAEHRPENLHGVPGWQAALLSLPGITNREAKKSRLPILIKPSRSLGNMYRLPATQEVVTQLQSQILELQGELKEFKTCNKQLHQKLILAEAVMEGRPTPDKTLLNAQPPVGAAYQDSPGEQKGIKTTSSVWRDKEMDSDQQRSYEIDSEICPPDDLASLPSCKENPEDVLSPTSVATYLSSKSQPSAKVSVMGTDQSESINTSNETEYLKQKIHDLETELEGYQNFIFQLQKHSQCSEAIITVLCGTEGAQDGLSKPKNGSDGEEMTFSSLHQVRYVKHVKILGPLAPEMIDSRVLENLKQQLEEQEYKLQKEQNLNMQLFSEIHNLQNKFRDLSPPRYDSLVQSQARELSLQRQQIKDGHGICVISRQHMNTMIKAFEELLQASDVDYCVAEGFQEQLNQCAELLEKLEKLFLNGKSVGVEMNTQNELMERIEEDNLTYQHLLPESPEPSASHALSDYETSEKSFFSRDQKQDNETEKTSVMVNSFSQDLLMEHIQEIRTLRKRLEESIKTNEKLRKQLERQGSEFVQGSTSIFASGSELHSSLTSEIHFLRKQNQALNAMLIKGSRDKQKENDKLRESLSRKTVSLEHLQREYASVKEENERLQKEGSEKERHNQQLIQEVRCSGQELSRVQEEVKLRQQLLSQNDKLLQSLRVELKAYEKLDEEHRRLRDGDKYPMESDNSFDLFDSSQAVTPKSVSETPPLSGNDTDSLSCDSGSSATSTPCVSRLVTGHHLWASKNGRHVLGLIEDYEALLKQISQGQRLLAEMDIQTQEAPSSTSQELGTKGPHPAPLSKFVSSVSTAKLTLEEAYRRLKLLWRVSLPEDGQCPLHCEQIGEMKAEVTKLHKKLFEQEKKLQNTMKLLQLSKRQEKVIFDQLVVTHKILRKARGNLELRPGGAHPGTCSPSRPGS

[2] = target: T1, GFP::CDK5RAP2 isoform B, full length, wild type (assembled into micron-scale scaffolds with anti-CM2 IgM) (human, UniProt Q96SN8-4 1-1814); test: partitioning into in vitro scaffolds (confocal fluorescence microscopy); 120 nM GFP::CDK5RAP2 assembled with anti-CM2 IgM, 50 nM mCherry, mCherry::HSET or mCherry::HSET(ΔIDR); 50 mM KCl, 25 mM HEPES; partition coefficient of mCherry signal; settings: both partners purified
T1 construct: CDK5RAP2 (CEP215) isoform B, human, Protein ID Q96SN8-4, lacking a.a; 1576-1654 of the longest isoform; full length; In the assays the protein stood as micron-scale assemblies nucleated by an anti-CM2 IgM; also called CEP215; GFP::CDK5RAP2(WT); source: SF9 insect cells (baculovirus), purified (MBP selector beads, PreScission cleavage, Ni-NTA to remove the protease)
T1 sequence (Q96SN8 other isoform, or with tags, fused parts or gaps): as above

Row | Molecule | fold more γ-TuRC recruited with mCherry::HSET than without [1] [fold] | binding result [2]
1 | human γ-tubulin ring complex tagged with blue fluorescent protein (mBFP::γ-TuRC) (from UniProt P23258 1-451) | 1.4 | 
2 | B1 |  | binds
